Reference: publication PMC4078008, “Exploring metabolic engineering design principles for the photosynthetic production of lactic acid by Synechocystis sp. PCC6803” (Biotechnology for Biofuels, 2014)

B1: L-LDH of B. subtilis (BsLDH) (Bacillus subtilis subsp. subtilis str. 168) (protein)
chain: MNKHVNKVALIGAGFVGSSYAFALINQGITDELVVIDVNKEKAMGDVMDLNHGKAFAPQPVKTSYGTYEDCKDADIVCICAGANQKPGETRLELVEKNLKIFKGIVSEVMASGFDGIFLVATNPVDILTYATWKFSGLPKERVIGSGTTLDSARFRFMLSEYFGAAPQNVHAHIIGEHGDTELPVWSHANVGGVPVSELVEKNDAYKQEELDQIVDDVKNAAYHIIEKKGATYYGVAMSLARITKAILHNENSILTVSTYLDGQYGADDVYIGVPAVVNRGGIAGITELNLNEKEKEQFLHSAGVLKNILKPHFAEQKVN
notes: codon-optimized gene, pET28b+ NdeI/HindIII, N-terminal His-tag (removal not mentioned), E. coli BL21(DE3), HisTrap-purified
B2: L-LDH of B. subtilis (BsLDH) (Bacillus subtilis subsp. subtilis str. 168; V38R) (protein)
chain: MNKHVNKVALIGAGFVGSSYAFALINQGITDELVVIDRNKEKAMGDVMDLNHGKAFAPQPVKTSYGTYEDCKDADIVCICAGANQKPGETRLELVEKNLKIFKGIVSEVMASGFDGIFLVATNPVDILTYATWKFSGLPKERVIGSGTTLDSARFRFMLSEYFGAAPQNVHAHIIGEHGDTELPVWSHANVGGVPVSELVEKNDAYKQEELDQIVDDVKNAAYHIIEKKGATYYGVAMSLARITKAILHNENSILTVSTYLDGQYGADDVYIGVPAVVNRGGIAGITELNLNEKEKEQFLHSAGVLKNILKPHFAEQKVN
notes: as for B1

Substrate: CC(=O)C(=O)O
Assay: purified protein
Type: biochemical, Bacillus subtilis
Settings: 50 mM phosphate pH 6.5, 30 °C, no FBP, co-substrate NADH (general LDH assay)

| Protein | Km |
| --- | --- |
| B1 | 4.34 ± 1.24 mM |
| B2 | 4.00 ± 0.50 mM |
